From patent publication US10227387 (CHILDREN S HOSPITAL MEDICAL CENTER, dated 2019)

Target: LRP1 (full-length cDNA of LRP-1, Accession #NM_002332.2) overexpressed on cells (human, UniProt Q07954 20-4544)
Experiment: cell-based or functional assay

LRP1 (full-length cDNA of LRP-1, Accession #NM_002332.2) overexpressed on cells, sequence (Q07954 20-4544): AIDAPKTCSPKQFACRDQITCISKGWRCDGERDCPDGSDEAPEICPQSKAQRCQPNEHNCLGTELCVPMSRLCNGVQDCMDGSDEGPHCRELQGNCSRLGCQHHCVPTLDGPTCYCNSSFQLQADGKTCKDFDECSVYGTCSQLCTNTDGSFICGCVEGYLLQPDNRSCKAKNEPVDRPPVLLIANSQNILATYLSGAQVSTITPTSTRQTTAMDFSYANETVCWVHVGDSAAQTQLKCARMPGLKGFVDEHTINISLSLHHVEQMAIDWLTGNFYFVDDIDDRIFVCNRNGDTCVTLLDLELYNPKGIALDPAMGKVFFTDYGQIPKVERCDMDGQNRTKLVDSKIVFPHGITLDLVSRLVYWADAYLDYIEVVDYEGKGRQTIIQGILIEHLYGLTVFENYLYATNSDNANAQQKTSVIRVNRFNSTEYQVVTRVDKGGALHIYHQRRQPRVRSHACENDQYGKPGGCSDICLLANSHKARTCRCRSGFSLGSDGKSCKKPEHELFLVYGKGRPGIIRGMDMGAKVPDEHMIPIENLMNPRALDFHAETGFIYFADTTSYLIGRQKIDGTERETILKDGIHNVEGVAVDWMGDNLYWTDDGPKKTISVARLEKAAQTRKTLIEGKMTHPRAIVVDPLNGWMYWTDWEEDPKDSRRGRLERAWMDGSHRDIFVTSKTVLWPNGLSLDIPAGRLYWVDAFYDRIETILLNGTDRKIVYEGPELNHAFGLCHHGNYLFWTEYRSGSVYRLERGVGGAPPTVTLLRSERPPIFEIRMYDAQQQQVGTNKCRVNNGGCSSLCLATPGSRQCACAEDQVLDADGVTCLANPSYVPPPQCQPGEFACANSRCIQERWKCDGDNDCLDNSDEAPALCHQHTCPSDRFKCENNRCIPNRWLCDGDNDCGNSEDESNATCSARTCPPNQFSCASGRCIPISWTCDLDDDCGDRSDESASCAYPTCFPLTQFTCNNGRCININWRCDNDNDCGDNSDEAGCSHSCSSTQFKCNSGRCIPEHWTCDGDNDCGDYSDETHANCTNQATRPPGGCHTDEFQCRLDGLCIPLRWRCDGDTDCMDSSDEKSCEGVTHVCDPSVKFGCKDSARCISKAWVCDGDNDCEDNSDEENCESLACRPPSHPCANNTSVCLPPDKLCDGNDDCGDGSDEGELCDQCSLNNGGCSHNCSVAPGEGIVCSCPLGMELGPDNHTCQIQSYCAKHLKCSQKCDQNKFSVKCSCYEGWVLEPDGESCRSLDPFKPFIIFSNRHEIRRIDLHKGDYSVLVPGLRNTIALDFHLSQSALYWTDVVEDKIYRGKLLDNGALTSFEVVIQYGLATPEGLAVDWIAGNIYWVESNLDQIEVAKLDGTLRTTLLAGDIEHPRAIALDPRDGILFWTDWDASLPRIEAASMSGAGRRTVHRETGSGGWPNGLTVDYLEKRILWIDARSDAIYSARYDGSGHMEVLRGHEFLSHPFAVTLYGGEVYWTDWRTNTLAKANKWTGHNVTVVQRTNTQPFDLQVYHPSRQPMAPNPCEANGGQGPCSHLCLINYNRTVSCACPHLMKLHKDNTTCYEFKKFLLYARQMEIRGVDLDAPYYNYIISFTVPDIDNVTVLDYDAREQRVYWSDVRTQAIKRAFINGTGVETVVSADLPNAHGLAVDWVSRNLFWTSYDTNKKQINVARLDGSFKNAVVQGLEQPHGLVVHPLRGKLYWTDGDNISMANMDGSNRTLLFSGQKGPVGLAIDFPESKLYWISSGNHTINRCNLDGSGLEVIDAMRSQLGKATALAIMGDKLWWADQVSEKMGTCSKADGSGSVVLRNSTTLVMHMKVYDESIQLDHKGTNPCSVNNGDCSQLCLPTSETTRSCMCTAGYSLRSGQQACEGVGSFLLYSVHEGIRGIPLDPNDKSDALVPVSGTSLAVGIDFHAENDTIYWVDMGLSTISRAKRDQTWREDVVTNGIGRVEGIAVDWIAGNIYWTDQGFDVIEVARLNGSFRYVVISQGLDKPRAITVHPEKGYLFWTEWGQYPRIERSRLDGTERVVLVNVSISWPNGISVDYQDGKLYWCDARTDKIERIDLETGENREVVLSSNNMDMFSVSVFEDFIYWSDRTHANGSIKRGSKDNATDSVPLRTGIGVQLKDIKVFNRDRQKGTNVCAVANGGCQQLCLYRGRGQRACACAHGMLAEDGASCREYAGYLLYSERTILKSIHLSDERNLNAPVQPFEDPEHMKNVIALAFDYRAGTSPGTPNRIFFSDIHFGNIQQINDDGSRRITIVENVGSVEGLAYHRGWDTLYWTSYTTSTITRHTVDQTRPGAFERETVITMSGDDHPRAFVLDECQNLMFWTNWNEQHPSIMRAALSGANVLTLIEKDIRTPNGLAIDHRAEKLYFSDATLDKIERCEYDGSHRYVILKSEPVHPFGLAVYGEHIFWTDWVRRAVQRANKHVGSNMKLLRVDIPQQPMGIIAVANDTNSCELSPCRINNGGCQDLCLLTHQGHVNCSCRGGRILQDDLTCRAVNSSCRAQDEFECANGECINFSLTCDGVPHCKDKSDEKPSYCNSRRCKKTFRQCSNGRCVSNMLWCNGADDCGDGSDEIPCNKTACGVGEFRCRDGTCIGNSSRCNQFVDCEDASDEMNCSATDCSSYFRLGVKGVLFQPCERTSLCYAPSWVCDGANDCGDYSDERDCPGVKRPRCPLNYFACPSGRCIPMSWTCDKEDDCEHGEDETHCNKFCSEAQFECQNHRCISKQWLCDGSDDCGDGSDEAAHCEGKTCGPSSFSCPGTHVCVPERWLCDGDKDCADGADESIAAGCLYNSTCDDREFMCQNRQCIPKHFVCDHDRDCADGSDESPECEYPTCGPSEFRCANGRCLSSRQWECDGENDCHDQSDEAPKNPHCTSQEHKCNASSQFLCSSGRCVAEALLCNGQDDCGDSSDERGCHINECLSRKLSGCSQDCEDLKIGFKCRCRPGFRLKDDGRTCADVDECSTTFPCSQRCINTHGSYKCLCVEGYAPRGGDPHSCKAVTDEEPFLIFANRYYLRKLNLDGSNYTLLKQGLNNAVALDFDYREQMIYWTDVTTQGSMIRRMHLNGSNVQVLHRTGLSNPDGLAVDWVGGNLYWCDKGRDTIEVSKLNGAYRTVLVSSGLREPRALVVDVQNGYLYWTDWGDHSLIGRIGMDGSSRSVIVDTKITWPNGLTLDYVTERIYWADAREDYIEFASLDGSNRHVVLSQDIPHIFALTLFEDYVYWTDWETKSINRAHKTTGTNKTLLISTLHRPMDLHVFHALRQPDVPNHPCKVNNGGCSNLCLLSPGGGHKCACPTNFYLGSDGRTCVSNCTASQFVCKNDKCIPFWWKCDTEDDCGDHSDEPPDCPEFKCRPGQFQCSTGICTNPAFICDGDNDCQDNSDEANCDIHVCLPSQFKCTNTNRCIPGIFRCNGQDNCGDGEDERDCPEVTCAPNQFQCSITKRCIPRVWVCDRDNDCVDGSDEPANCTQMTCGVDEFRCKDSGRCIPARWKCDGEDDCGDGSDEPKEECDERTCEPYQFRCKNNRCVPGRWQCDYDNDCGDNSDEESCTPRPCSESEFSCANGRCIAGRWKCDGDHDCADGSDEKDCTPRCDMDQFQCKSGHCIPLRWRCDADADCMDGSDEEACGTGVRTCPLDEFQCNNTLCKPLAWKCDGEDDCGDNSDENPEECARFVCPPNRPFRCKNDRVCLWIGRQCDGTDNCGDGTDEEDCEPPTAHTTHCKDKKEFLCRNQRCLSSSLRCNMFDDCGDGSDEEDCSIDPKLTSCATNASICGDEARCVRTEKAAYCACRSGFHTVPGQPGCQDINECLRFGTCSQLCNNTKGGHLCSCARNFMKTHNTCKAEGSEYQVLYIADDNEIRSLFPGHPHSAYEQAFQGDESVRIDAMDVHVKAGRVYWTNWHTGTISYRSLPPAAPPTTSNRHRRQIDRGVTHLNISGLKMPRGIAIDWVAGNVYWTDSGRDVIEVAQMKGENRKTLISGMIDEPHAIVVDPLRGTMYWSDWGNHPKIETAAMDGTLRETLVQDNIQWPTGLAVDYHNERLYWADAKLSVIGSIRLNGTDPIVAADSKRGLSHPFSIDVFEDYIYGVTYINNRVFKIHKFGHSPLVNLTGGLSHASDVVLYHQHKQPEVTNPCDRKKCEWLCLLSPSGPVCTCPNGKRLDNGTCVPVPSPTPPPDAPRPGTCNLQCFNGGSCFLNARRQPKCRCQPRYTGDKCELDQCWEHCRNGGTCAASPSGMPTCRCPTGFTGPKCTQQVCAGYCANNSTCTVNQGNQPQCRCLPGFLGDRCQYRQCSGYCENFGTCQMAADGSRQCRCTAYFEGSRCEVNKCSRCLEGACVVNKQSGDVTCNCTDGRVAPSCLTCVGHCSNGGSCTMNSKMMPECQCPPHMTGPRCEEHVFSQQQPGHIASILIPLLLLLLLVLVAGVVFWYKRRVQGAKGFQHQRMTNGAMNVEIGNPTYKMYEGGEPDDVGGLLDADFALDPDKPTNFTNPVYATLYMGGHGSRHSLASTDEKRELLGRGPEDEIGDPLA

- intracellular enzyme level in pause-chase uptake assay, CHO^LDLRneg-LRP1 cells, against unmodified IDUA: 2 fold
B1: IDUAe1 (enzyme)
chain: APHLVHVDAARALWPLRRFWRSTGFCPPLPHSQADQYVLSWDQQLNLAYVGAVPHRGIKQVRTHWLLELVTTRGSTGRGLSYNFTHLDGYLDLLRENQLLPGFELMGSASGHFTDFEDKQQVFEWKDLVSSLARRYIGRYGLAHVSKWNFETWNEPDHHDFDNVSMTMQGFLNYYDACSEGLRAASPALRLGGPGDSFHTPPRSPLSWGLLRHCHDGTNFFTGEAGVRLDYISLHRKGARSSISILEQEKVVAQQIRQLFPKFADTPIYNDEADPLVGWSLPQPWRADVTYAAMVVKVIAQHQNLLLANTTSAFPYALLSNDNAFLSYHPHPFAQRTLTARFQVNNTRPPHVQLLRKPVLTAMGLLALLDEEQLWAEVSQAGTVLDSNHTVGVLASAHRPQGPADAWRAAVLIYASDDTRAHPNRSVAVTLRLRGVPPGPGLVYVTRYLDNGLCSPDGEWRRLGRPVFPTAEQFRRMRAAEDPVAAAPRPLPAGGRLTLRPALRLPSLLLVHVCARPEKPPGQVTRLRALPLTQGQLVLVWSDEHVGSKCLWTYEIQFSQDGKAYTPVSRKPSTFNLFVFSPDTGAVSGSYRVRALDYWARPGPFSDPVPYLEVPVPRGPPSPGNPILKKATAYILLRKLRKRLLLRKLRKRLL
